In general, Kd refers to a measure of binding affinity in units of concentration.

In series [1] the target is NF-κB p65 (RelA) homodimer (UniProt Q04206). Conditions: 1:1 stoichiometry; method not stated; cited from earlier work.
In the next series the target is NF-κB p50 homodimer (UniProt P19838). As to conditions: SELDI also detects p50 on IgκB surface; lost on stringent washing unlike XBY-6.
Chain of NF-κB p50 homodimer (P19838 1-433): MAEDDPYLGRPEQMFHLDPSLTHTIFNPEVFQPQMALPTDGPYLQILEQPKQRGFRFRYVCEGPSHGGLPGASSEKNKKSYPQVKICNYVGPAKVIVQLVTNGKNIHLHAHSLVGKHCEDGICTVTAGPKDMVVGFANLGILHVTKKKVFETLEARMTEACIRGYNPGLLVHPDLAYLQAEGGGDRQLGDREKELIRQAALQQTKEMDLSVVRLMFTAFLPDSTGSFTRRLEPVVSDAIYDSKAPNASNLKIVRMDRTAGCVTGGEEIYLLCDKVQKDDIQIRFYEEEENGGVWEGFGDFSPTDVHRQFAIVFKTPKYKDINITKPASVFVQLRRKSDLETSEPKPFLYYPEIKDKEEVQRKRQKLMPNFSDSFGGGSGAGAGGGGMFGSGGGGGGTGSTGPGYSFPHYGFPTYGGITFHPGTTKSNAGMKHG

Chain of NF-κB p65 (RelA) homodimer (Q04206 whole entry): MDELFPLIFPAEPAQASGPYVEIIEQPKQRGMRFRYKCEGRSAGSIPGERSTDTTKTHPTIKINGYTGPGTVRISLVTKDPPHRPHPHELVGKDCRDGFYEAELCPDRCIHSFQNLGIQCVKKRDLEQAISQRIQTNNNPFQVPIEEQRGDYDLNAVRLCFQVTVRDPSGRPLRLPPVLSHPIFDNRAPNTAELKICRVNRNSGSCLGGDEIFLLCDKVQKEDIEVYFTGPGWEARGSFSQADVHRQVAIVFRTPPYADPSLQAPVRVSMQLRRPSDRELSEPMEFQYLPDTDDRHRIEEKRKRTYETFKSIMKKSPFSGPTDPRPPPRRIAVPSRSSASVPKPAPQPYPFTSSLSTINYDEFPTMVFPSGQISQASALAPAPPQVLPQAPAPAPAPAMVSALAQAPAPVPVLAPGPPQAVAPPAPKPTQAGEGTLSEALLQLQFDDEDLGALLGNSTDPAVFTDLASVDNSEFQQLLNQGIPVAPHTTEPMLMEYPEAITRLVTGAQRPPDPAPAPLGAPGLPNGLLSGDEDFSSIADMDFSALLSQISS

As to IgκB 22-mer duplex, the Kd (in series [1]; in the series with NF-κB p50 homodimer) was 4 nM each time.

The record behind these values is patent US20050118611.
